Data: US20190282673A1, “STAPHTAME ACTIVITY ON BIOFILMS” (priority 2016, published 2019)

Assays:
S. aureus BK1 biofilms = experiment: Scanning electron microscopy of treated biofilms in microtitre plates; assay type: cell-based, Staphylococcus aureus; conditions: Gentamycin 50 μg/mL; P128 12.5 μg/mL (lowest concentration tested)
Method: MRSA strain BK1 or MW2 was used for studying biofilm eradication activity of P128 by SEM. For this, biofilms formed in microtitre plates or on the surface of catheters were treated with increasing concentrations of P128 or antibiotics and subjected to SEM. S. aureus BK1 or MW2 was revived on blood agar plates and the culture was grown overnight in TSB supplemented with 20% glucose. The overnight-grown culture was diluted 1:50 in TSB with 2% glucose to achieve OD600=˜0.1. 200 μL of the diluted culture was aliquoted into each well of the 96 well plate and incubated at 37° C. under static conditions for 18 h. After incubation the contents were aspirated, washed twice with 200 μL of PBS, and 100 μL of media+100 μL of drug were added to each well and incubated again at 37° C. for 18 h. The contents were aspirated, washed with 200 μL of PBS and allowed to dry at 37° C. for 15 min. The individual wells were cut out and biofilms visualized by SEM.

[1] = tested on: S. aureus small colony variants (hemB and menD mutants); experiment: Lawn inhibition assay on small colony variants; assay type: cell-based, Staphylococcus aureus
Method: Two S. aureus small colony variants viz., hemB mutant and menD mutants were characterized for SCV phenotype and auxotrophy for hemin and menadione. Both the isolates were revived on LB agar with and without Erythromycin (5 μg/mL) and Blood agar medium and incubated at 37° C. for 48 hr.
P128 was tested on both the mutants by lawn inhibition assay and the SCV's were susceptible to P128.

[2] = tested on: S. aureus small colony variants and wild type; experiment: CFU drop assay on small colony variants; assay type: cell-based, Staphylococcus aureus
Method: Bacterial cultures were grown in LB medium at 37° C. until OD600 reached 1.0 and then diluted in LB to obtain 10^7 CFU. 100 μL of cells (10^7 CFU) in LB were treated with 100 μL of P128 (in saline) and incubated at 37° C. for 1 h, 200 rpm, cell controls without proteins were maintained. Following incubation, the volume was made up to 1 mL with LB broth, serially log diluted in LB broth and plated on LB agar. Incubated at 37° C. for 16-18 h to enumerate residual CFU and determine cell killing.

[3] = tested on: S. aureus stationary phase cells; experiment: P128 activity on stationary phase cells (CFU); assay type: cell-based, Staphylococcus aureus; conditions: for CFU/mL, P128 treated: 10 μg/mL P128, 2 h
Source text: (§1) Most in vitro studies examining the activity of antibiotics have been performed on rapidly dividing planktonic bacterial cultures supplemented with rich growth media. However, in infections, bacteria seldom encounter optimal conditions that allow logarithmic growth. It is likely that stationary-phase or non dividing bacteria are common in many persistent Staphylococcus infections such as endocarditis and osteomyelitis and in biofilm-associated infections (e.g., on catheters, grafts, and foreign bodies). Therefore, activity of P128 was determined on stationary phase cells of three S. aureus strains, three S. epidermidis, and two each of S. lugdunensis and S. haemolyticus strains. Briefly, the test cultures were grown overnight in LB (˜10^9 cells), centrifuged, pellet was washed and resuspended in saline. Optical density (OD600) was adjusted to 0.2 (˜10^8 CFU/mL). 100 μL of these cells were treated with 10 μg/mL P128 (in saline) and incubated at 37° C. for 2 h, 200 rpm, cell controls without proteins were maintained. Following incubation, the volume was made up to 1 mL with saline, serially log diluted in saline and plated on LB agar. Incubated at 37° C. for 18 h to enumerate residual CFU to determine cell killing.

[4] = tested on: S. haemolyticus stationary phase cells; experiment: P128 activity on stationary phase cells (CFU); assay type: cell-based; conditions: 10 μg/mL P128, 2 h
Source text: as §1

[5] = tested on: S. lugdunensis stationary phase cells; experiment: P128 activity on stationary phase cells (CFU); assay type: cell-based; conditions: 10 μg/mL P128, 2 h
Source text: as §1

S. aureus = experiment: P128 MIC in CAMHB and serum; assay type: cell-based, Staphylococcus aureus
S. lugdunensis = experiment: P128 MIC in CAMHB and serum; assay type: cell-based
S. haemolyticus = experiment: P128 MIC in CAMHB and serum; assay type: cell-based
MRSA MW2 = experiment: Rat model of infective endocarditis; assay type: in vivo, Wistar albino rats; conditions: described in present tense, no data
Source text: A rat model of infective endocarditis is used. Fernandez, et al. (2012). Synergistic activity of ceftobiprole and vancomycin in a rat model of infective endocarditis caused by methicillin-resistant and glycopeptide-intermediate Staphylococcus aureus. Antimicrob Agents Chemother. 56(3):1476-84. Female Wistar albino rats are operated under ketamine and xylazine anaesthesia Right carotid artery is cannulated and polyethylene catheter is placed near the […]. Two days later, animals are challenged with MRSA MW2 through tail vein. Twenty four hours post-challenge, animals are treated with appropriate doses of P128 (IV bolus or infusion) or standard of care antibiotics (e.g., vancomycin, daptomycin, linezolid, oxacillin, etc.) or both. Animals are euthanized at appropriate time after the last dosing, vegetations are collected and bacterial load is determined.

B1: P128: anti-staphylococcal chimeric protein: phage tail associated muralytic enzyme (TAME) cell wall-degrading region plus staphylococcus-specific binding region; SEQ ID NO: 1 (protein)
chain: MSLDSLKKYNGKLPKHDPSFVQPGNRHYKYQCTWYAYNRRGQLGIPVPLWGDAADWIGGAKGAGYGVGRTPKQGACVIWQRGVQGGSPQYGHVAFVEKVLDGGKKIFISEHNYATPNGYGTRTIDMSSAIGKNAQFIYDKKLETPNTGWKTNKYGTLYKSESASFTPNTDIITRTTGPFRSMPQSGVLKAGQTIHYDEVMKQDGHVWVGYTGNSGQRIYLPVRTWNKSTNTLGVLWGTIK
modifications: P128 chimera
**Q.** For B1, which “Effect on biofilm by SEM” value (S. aureus BK1 biofilms) is on record?
**A.** Its value is “destroyed the biofilm structure and lysed the bacterial cells completely”.

**Q.** What about the Lawn inhibition [1] of the same molecule?
**A.** Its Lawn inhibition is “susceptible”.

**Q.** And the “Reduction in CFU of SCV strains” value [2]?
**A.** The value was “more than 4 log”.

**Q.** What about the “CFU/mL, P128 treated” value ([2]; S. aureus USA 300 (wild type), 1 h) of the same molecule?
**A.** The value was 4.5 × 10^2 CFU/mL.

**Q.** And the “CFU/mL, P128 treated” value ([2]; hemB small colony mutant NR48387, 1 h)?
**A.** Its value is 3.0 × 10^1 CFU/mL.

**Q.** What about the “CFU/mL, P128 treated” value ([2]; menD mutant small colony mutant, 1 h) of the same molecule?
**A.** Its value is 1.2 × 10^3 CFU/mL.

**Q.** What about the “CFU/mL, P128 treated” value ([3]; S. aureus B9377 stationary phase) of the same molecule?
**A.** Its value is 3 × 10^2 CFU/mL.

**Q.** What about the “CFU/mL, P128 treated” value ([3]; S. aureus BK18 stationary phase) of the same molecule?
**A.** Its value is 1 × 10^1 CFU/mL.

**Q.** And the “CFU/mL, P128 treated” value ([3]; S. aureus BK31 stationary phase)?
**A.** Its value is 3.5 × 10^1 CFU/mL.

**Q.** What about the “Drop in CFU, stationary cells” value ([3]; S. aureus, S. epidermidis, S. lugdunensis and S. haemolyticus) of the same molecule?
**A.** Its value is “Three to five log drop in CFU”.

**Q.** What about the “CFU/mL, P128 treated” value ([4]; S. haemolyticus B9478 stationary phase) of the same molecule?
**A.** The value was 1.1 × 10^3 CFU/mL.

**Q.** What about the “CFU/mL, P128 treated” value ([4]; S. haemolyticus B9479 stationary phase) of the same molecule?
**A.** Its value is 6 × 10^2 CFU/mL.

**Q.** What about the “CFU/mL, P128 treated” value ([5]; S. lugdunensis B9474 stationary phase) of the same molecule?
**A.** Its value is 4.9 × 10^2 CFU/mL.

**Q.** What about the “CFU/mL, P128 treated” value ([5]; S. lugdunensis B9475 stationary phase) of the same molecule?
**A.** The value was 2.7 × 10^4 CFU/mL.

**Q.** What about the “Fold reduction in serum MIC” value (S. aureus; S. aureus MW2) of the same molecule?
**A.** The value was 64 fold.

**Q.** And the “MIC of P128 in CAMHB” value (S. aureus; S. aureus MW2)?
**A.** Its value is 8 μg/ml and (0.29) μM.

**Q.** What about the “MIC of P128 in Serum” value (S. aureus; S. aureus MW2) of the same molecule?
**A.** Its value is 0.12 μg/ml and (0.004) μM.

**Q.** And the “Fold reduction in serum MIC” value (S. aureus; S. aureus USA 300)?
**A.** The value was 64 fold.

**Q.** And the “MIC of P128 in CAMHB” value (S. aureus; S. aureus USA 300)?
**A.** The value was 8 μg/ml and (0.29) μM.

**Q.** And the “MIC of P128 in Serum” value (S. aureus; S. aureus USA 300)?
**A.** The value was 0.12 μg/ml and (0.004) μM.

**Q.** And the “Fold reduction in serum MIC” value (S. lugdunensis; S. lugdunensis B9476)?
**A.** The value was 8 fold.

**Q.** And the “MIC of P128 in CAMHB” value (S. lugdunensis; S. lugdunensis B9476)?
**A.** Its value is 4 μg/ml and (0.14) μM.

**Q.** What about the “MIC of P128 in Serum” value (S. lugdunensis; S. lugdunensis B9476) of the same molecule?
**A.** The value was 0.5 μg/ml and (0.017) μM.

**Q.** What about the “Fold reduction in serum MIC” value (S. lugdunensis; S. lugdunensis B9510) of the same molecule?
**A.** Its value is 32 fold.

**Q.** And the “MIC of P128 in CAMHB” value (S. lugdunensis; S. lugdunensis B9510)?
**A.** Its value is 16 μg/ml and (0.58) μM.

**Q.** What about the “MIC of P128 in Serum” value (S. lugdunensis; S. lugdunensis B9510) of the same molecule?
**A.** Its value is 0.5 μg/ml and (0.017) μM.

**Q.** And the “24 h P128 MIC for serum time-kill” value (S. lugdunensis; S. lugdunensis, fetal calf serum)?
**A.** The value was 0.50 µg/mL.

**Q.** What about the “Fold reduction in serum MIC” value (S. haemolyticus; S. haemolyticus B9478) of the same molecule?
**A.** The value was 16 fold.

**Q.** And the “MIC of P128 in CAMHB” value (S. haemolyticus; S. haemolyticus B9478)?
**A.** Its value is 128 μg/ml and (4.64) μM.

**Q.** And the “MIC of P128 in Serum” value (S. haemolyticus; S. haemolyticus B9478)?
**A.** The value was 8 μg/ml and (0.29) μM.

**Q.** And the “Fold reduction in serum MIC” value (S. haemolyticus; S. haemolyticus B9511)?
**A.** Its value is 32 fold.

**Q.** What about the “MIC of P128 in CAMHB” value (S. haemolyticus; S. haemolyticus B9511) of the same molecule?
**A.** Its value is 8 μg/ml and (0.29) μM.

**Q.** What about the “MIC of P128 in Serum” value (S. haemolyticus; S. haemolyticus B9511) of the same molecule?
**A.** The value was 0.25 μg/ml and (0.008) μM.

**Q.** What about the “24 h P128 MIC for serum time-kill” value (S. haemolyticus; S. haemolyticus, fetal calf serum) of the same molecule?
**A.** The value was 0.25 µg/mL.

**Q.** And the “CFU reduction in vegetations” value (MRSA MW2)?
**A.** The value was “Significantly higher CFU reduction”.
